Experimental data reported in patent US20170022281A1 (AbbVie / Abbott, published 2017).

T1: murine PRLR (Biacore antigen) (murine, UniProt Q08501 20-229, limits assumed)
T1 construct: also called muPRLR
T1 sequence (looked up): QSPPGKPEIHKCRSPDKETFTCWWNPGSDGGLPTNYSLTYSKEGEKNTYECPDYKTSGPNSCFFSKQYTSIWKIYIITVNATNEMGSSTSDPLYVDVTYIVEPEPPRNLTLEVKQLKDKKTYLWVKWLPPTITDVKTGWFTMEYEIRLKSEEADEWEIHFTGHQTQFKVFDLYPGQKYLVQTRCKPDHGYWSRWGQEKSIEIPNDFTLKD

T2: cyno PRLR (Biacore antigen) (cyno, UniProt A0A2K5WXK1 25-234)
T2 construct: also called cyPRLR
T2 sequence: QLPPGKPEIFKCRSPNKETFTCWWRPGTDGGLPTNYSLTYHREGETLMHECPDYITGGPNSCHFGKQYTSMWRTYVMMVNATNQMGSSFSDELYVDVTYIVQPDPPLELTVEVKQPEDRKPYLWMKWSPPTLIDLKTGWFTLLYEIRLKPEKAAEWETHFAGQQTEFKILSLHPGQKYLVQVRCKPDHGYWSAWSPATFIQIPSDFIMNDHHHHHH

T3: human PRLR (Biacore antigen) (human, UniProt P16471 25-234, limits assumed)
T3 construct: The construct injected over captured antibody is not described (a soluble form is likely); also called huPRLR
T3 sequence: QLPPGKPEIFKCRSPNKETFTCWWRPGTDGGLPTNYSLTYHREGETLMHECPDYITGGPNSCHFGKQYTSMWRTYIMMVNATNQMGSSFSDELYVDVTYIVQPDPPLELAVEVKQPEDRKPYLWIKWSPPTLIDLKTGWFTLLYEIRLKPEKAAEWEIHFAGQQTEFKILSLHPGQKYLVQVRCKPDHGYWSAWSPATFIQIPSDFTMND

T4: mouse PRLR on Baf3-mPRLR cells (mouse, UniProt Q08501 20-608)
T4 sequence (looked up): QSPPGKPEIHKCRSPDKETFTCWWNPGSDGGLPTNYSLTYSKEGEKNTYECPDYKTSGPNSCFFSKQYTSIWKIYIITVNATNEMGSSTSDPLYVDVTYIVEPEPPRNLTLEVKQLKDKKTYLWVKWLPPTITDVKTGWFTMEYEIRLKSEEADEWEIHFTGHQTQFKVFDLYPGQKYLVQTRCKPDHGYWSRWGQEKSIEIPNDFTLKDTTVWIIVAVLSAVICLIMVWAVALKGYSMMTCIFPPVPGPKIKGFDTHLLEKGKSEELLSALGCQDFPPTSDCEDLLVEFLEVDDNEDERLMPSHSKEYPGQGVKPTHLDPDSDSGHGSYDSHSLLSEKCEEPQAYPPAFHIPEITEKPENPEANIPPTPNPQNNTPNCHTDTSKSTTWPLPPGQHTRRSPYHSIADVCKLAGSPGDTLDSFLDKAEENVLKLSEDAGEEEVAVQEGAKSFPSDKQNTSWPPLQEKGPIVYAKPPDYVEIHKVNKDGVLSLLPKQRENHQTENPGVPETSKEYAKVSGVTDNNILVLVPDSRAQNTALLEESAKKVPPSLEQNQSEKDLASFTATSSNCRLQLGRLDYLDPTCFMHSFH

T5: human PRLR on cells (human, UniProt P16471 25-622)
T5 sequence: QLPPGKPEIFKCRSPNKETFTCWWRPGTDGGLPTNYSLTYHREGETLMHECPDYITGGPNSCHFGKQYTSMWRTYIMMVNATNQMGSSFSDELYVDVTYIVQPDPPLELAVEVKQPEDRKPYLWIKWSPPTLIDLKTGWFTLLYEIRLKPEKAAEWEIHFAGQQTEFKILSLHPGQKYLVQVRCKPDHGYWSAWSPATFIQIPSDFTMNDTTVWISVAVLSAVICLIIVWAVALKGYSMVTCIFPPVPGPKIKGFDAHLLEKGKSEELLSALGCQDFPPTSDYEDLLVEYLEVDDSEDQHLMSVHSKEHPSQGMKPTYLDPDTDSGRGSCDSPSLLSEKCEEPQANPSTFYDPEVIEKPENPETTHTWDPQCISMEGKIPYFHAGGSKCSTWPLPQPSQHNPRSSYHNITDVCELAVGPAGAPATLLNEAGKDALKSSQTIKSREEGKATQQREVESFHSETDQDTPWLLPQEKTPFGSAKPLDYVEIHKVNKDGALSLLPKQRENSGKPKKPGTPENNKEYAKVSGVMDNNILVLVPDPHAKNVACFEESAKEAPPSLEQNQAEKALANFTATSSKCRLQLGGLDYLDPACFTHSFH

B1: Ab48 (antibody, human IgG1, kappa, V domains shown)
VH: EVQLVQSGAEVKKPGASVKVSCKASGYTFTDYNIHWVRQAPGQGLEWIGYIYPNNDGTGYNQKFKSRATLTVDNSTSTAYMELRSLRSDDTAVYYCARGDGNYVGDMDYWGQGTTVTVSS
VL: DIQMTQSPSSLSASVGDRVTITCRASENIYSYLAWYQQKPGKPPKLLVYNAKTLAEGVPSRFSGSGSGTDFTLTISSLQPEDFATYYCQHHYATPFTFGQGTKLEIKR
notes: humanized from Ab8; G1; also called Ab3 HC.1a and Ab3 LC.1a
B2: LFA102 (antibody, human IgG1, kappa, V domains shown)
VH: EVQLVESGGGLVQPGGSLRLSCAVSGFTFSSYGMSWVRQAPGKRLEWVATVSSGGTYTYYPDSVKGRFTISRDNSKNTLYLQMNSLRAEDTAMYYCARHRGNYYATYYYAMDYWGQGTLVTVSS
VL: DIVLTQSPDSLAVSLGERATINCKASKSVSTSGYTYMHWYQQKPGQPPKLLIYLASNRESGVPDRFSGSGSGTDFTLTISPVQAEDVATYYCQHSGELPPSFGQGTKLEIKR
notes: humanized IgG1 kappa comparator (WO 2008022295)
B3: chAb5 (antibody, human IgG1, kappa, V domains shown)
VH: QVQLQQPGAELVRPGTSVKLSCKASGYTFTSFWMHWVKQRPGQGLEWIGVIDPSDTYTNYNQKFKGKATLTVDTSSSTAYMQLSSLTSEDSAVYYCARGDYSNWFTYWGQGTLVTVSA
VL: DVVMTQTPLSLPVSLGDQASISCRSSQRLVHSNGNTYLHWYLQKPGQSPKLLIYKVSNRFSGVPDRFSGSGSGTDFTLKISRVEAEDLGVYFCSQSTHVPWTFGGGTKLEIKT
notes: chimeric, murine variable and human G1/kappa constant regions
B4: chAb7 (antibody, human IgG1, kappa, V domains shown)
VH: QVQLQQPGAELVMPGTSVKLSCKASGYTFTSYWIHWVKQRPGQGLEWIGEIDPSDSYTNYNQKFKGKATLTVDRSSSTAYMQLSSLTSEDSAVYYCGRSFFTNWFAYWGQGTLVTVSA
VL: DVVMTQTPLSLPVSLGDQASISCRSSQSLVHSNGNTYLHWYLQKPGQSPKLLIYKVSNRFSGVPDRFSGSGSGTDFTLKINRVEAEDLGVYFCSQSTHVPFTFGSGTKLEIKT
notes: as for B3

Experiments:
[1] = target: T1, murine PRLR (Biacore antigen); assay: SPR Biacore
In short: (§1)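 Association rate, dissociation rate and dissociation constant were measured by surface plasmon resonance on a Biacore instrument. PRLR antigen was tested at 600 nM, 66.67 nM and 7.41 nM, a 3-point, 9-fold dilution series. Constants came from a 1:1 binding model fit (local Rmax, mass-transport term included) in Biacore T200 Evaluation Software.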

[2] = target: T2, cyno PRLR (Biacore antigen); assay: SPR Biacore
In short: as §1

[3] = target: T3, human PRLR (Biacore antigen); assay: SPR Biacore
In short: as §1

[4] = target: T3, human PRLR (Biacore antigen); assay: SPR simultaneous binding; PRLR held by surface mAb Ab19
Description: (§2) Running buffer was HBS-EP+ (10 mM Hepes, pH7.4, 150 mM NaCl, 3 mM EDTA, 0.05% surfactant). Assay was performed at 12° C. using Biacore T200 and CM5 sensor chips with anti-human IgG (Pierce) amine-coupled in all 4 flow cells to ˜2000 RU.
(§3) Separate test mAbs were captured in flowcells 2, 3 & 4 (flowcell 1 was reference, no test mAb). All 4 flowcells were then blocked by injection with isotype control mAb at 50 ug/ml. All 4 flowcells were then injected with antigen or buffer only (buffer only is for double referencing, done for each mAb pair individually). All 4 flowcells were then injected with 2nd test mAb at 10 ug/ml. All 4 flowcells were then regenerated with glycine, pH1.5.

[5] = target: T4, mouse PRLR on Baf3-mPRLR cells; assay: cell-based or functional assay
human PRLR on cells = target: T5, human PRLR on cells; assay: cell-based or functional assay
[6] = target: cyno PRLR on Baf3-cyPRLR cells (cyno); assay: cell-based or functional assay
[7] = target: T3, human PRLR (Biacore antigen); assay: SPR simultaneous binding; PRLR held by surface mAb Ab40
Description: as §2, §3

Row | Binder | Kd [1] [nM] | koff [1] [s⁻¹] | kon [1] [M⁻¹ s⁻¹] | Kd [2] [nM] | koff [2] [s⁻¹] | kon [2] [M⁻¹ s⁻¹] | Kd [3] [nM] | koff [3] [s⁻¹] | kon [3] [M⁻¹ s⁻¹] | solution mAb binding, % of PRLR binding [4] [%] | Baf3-mPRLR proliferation IC50 [5] [µg/mL] | Baf3-hPRLR proliferation IC50 (human PRLR on cells) [µg/mL] | Baf3-cyPRLR proliferation IC50 [6] [µg/mL] | solution mAb binding, % of PRLR binding [7] [%] | T47D pPRLR ELISA IC50 (human PRLR on cells) [µg/mL]
1 | B1 | 453 | 0.0983 | 217000 | 9.77 | 0.00563 | 576000 | 0.18 | 9.84e-05 | 546000 | -1 | > 30 | 0.4 | 4.87 | -2 | 
2 | B2 | 26 | 0.016 | 620000 | 11 | 0.0095 | 880000 | 1.3 | 0.00073 | 560000 | 19 | > 30 | 0.56 | > 30 | 40 | 0.069
3 | B3 | 13.8 | 0.00277 | 200000 | 0.671 | 0.000223 | 333000 | 0.558 | 0.000199 | 356000 | 0 | 2.51 | 0.15 | 0.42 | -2 | 
4 | B4 | 44.9 | 0.00357 | 79500 | 0.154 | 3.61e-05 | 235000 | 0.18 | 4.46e-05 | 248000 | -1 | 3.6 | 1.2 | 1.9 | -2 | 
